± gives the standard deviation of the averaged measurements.
System: ATP
Assay: switch fluorescence ratio, 500 uM ATP over buffer (Cy3 cluster intensity, sum of 5 cycles each) (fold (ratio)); higher = stronger signal-on switching upon ATP binding; sequences stand for … in TCGTCGGCAGCGTCAGATGTGTATAAGAGACAGTTTTTTTTTTTTTTTTTTTTTTTTT…TC
Details: aptamer strand: ATP DNA aptamer (quencher-CACCTGGGGGAGTATTGCGGAGGAAGG + anchor), 100 nM annealed; ATP concentration: 500 uM
Summary of the method: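 Clusters with intensities outside 100-1000 RFU were excluded. The remaining Cy3-labelled switching-strand clusters on a modified Illumina MiSeq flow-cell had been annealed to 100 nM quencher-labelled ATP aptamer and imaged in selection buffer, then after 15 min with 500 uM ATP at 22 °C, for five cycles separated by NaOH stripping and re-annealing. The fluorescence ratio, averaged per switch-domain sequence, is each cluster's summed target-cycle Cy3 intensity over its summed buffer-cycle Cy3 intensity.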
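Note: ATP exposure 15 min at 22 °C before imaging.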

Sequence	switch fluorescence ratio
CAGGTGCTGG	1.167 ± 0.0018
CAGGTGGAGA	1.0094 ± 0.00078
CAGGTGTGGC	1.11 ± 0.013
CAGGTGTTTG	1.39 ± 0.055
CAGGTTACGC	1.01 ± 0.027
CAGGTTGGGT	1.001 ± 0.0086
CAGGTTGTGC	0.98 ± 0.055
CAGGTTTAGT	0.9682 ± 0.0043
CAGTAACTGT	1.02 ± 0.027
CAGTACTCTG	0.986 ± 0.031
CAGTAGAATT	1.02 ± 0.023
CAGTAGTGTC	0.985 ± 0.041
CAGTCAGCGG	1.01 ± 0.02
CAGTCATGGG	1 ± 0.035
CAGTCATTCG	0.99 ± 0.016
CAGTCCGGCA	1.05 ± 0.021
CAGTCCGGTC	1.06 ± 0.014
CAGTGAGGGT	0.981 ± 0.019
CAGTGCACTC	0.9918 ± 0.0014
CAGTGCGTGG	0.988 ± 0.017
CAGTGCGTGT	1 ± 0.03
CAGTGGCCTA	0.99094 ± 0.00045

Sequence	switch fluorescence ratio
CAGTGGGAGA	1.025 ± 0.0088
CAGTGGGGCA	1.03 ± 0.053
CAGTGGGGGC	1.05 ± 0.087
CAGTGGTCGT	0.999 ± 0.011
CAGTGTGGTG	1 ± 0.049
CAGTTAAAGG	1.01 ± 0.017
CAGTTACACG	0.995 ± 0.023
CAGTTAGGGG	1.02 ± 0.013
CAGTTCATGA	1.01 ± 0.027
CAGTTCTCGT	0.969 ± 0.018
CAGTTGATGC	1.01 ± 0.096
CAGTTGCTGA	0.999 ± 0.011
CAGTTGGGGT	0.997 ± 0.022
CAGTTGTAAA	0.9699 ± 0.0067
CAGTTGTTGG	0.984 ± 0.011
CAGTTTTATC	1.012 ± 0.0039
CAGTTTTCGG	1 ± 0.021
CAGTTTTGAG	0.9917 ± 0.0014
CATAAAAGAT	1.01 ± 0.017
CATAAAGATG	1.053 ± 0.01
CATAACCGGT	1.01 ± 0.027
CATAATAC	1.82 ± 0.4

Sequence	switch fluorescence ratio
CATAATTTTT	0.991 ± 0.062
CATACAATTG	1.06 ± 0.091
CATACACAGG	1.26 ± 0.078
CATACATCCG	1.07 ± 0.038
CATAGACGGG	1.03 ± 0.081
CATAGATAGG	0.992 ± 0.011
CATAGGATCG	0.949 ± 0.038
CATAGTGTTT	1.01 ± 0.012
CATAGTTTGG	1.07 ± 0.034
CATATAATTC	0.975 ± 0.042
CATATAGGGC	0.985 ± 0.02
CATATATCGG	1.02 ± 0.012
CATATATTGG	1.02 ± 0.05
CATATCACAT	1.024 ± 0.0062
CATATCGAAA	1.013 ± 0.0033
CATATGGGGG	1.02 ± 0.046
CATATGTTTT	1 ± 0.035
CATATTATCA	1.02 ± 0.024
CATATTCAAT	1 ± 0.015
CATATTTGCC	1.03 ± 0.059
CATCAAGGCA	1.01 ± 0.019
CATCAATCTC	1.12 ± 0.02

Sequence	switch fluorescence ratio
CATCAGGAGG	0.961 ± 0.035
CATCATGTTT	0.984 ± 0.015
CATCATTGGC	0.974 ± 0.092
CATCCGGCCG	1.194 ± 0.0019
CATCCGGGGG	1.56 ± 0.73
CATCGGAGGG	1.02 ± 0.029
CATCGGCTGA	0.992 ± 0.023
CATCGGTCTT	0.958 ± 0.039
CATCGTAAAT	1.06 ± 0.016
CATCGTGTTA	1.01 ± 0.022
CATCGTTTTT	1.02 ± 0.02
CATCTAAAGA	1.005 ± 0.0067
CATCTAAGGG	0.983 ± 0.042
CATCTAGGGC	1.04 ± 0.028
CATCTCCCTG	1.06 ± 0.016
CATCTGGGCC	1.01 ± 0.022
CATCTTTGCA	0.9943 ± 0.0063
CATGACGTGT	1.01 ± 0.012
CATGACTCCC	2.01 ± 0.13

Source: the supplement of paper PMC10126150
